Laboratory results from patent US6994959, “G-rich oligo aptamers and methods of modulating an immune response” (Valeant Research & Development).

Tests used:
[1] = target: T1, Sp1 (UniProt P08047 P08047:2-785); assay: competition; control oligo did not compete; about 70-100 molar excess; details: tags: Promega purified Sp1
Procedure: (§1) In an effort to restrict the precise Sp1 binding region in 28b to the G-rich motif in the CD28 promoter region –197 to +28, we synthesized a double stranded (ds) 30mer oligo called 28b oligo (Seq #1 Table 1) which contains the 12mer GGGGAGGAGGGG within its sequence. We hypothesized that this was a Sp1 binding site in the CD28 promoter region. Following 32P-labeling, 28b oligo was incubated with Sp1 extract and indeed they bind to each other (FIG. 5, band A, lane 2 and 3). Competition with cold ds 28b oligo caused the band to disappear showing indeed that the binding was specific to Sp1 (lane 4). […] The consequence of this interaction is the prevention of Sp1 binding to the Sp1 site at –51 to –22 in the promoter region and which inhibits Sp1-mediated transcription of the CD28 gene and decreases expression of the mature CD28 protein.

[2] = target: T1, Sp1; assay: competition; competes with 32P ds 28b oligo; about 70-100 molar excess; details: tags: Promega purified Sp1
Procedure: as §1

[3] = target: T1, Sp1; assay: EMSA; band A; competed by cold ds 28b oligo; room temperature; details: tags: Promega purified Sp1; label: 32P
Procedure: as §1

T1 sequence (P08047 2-785, one chain of several): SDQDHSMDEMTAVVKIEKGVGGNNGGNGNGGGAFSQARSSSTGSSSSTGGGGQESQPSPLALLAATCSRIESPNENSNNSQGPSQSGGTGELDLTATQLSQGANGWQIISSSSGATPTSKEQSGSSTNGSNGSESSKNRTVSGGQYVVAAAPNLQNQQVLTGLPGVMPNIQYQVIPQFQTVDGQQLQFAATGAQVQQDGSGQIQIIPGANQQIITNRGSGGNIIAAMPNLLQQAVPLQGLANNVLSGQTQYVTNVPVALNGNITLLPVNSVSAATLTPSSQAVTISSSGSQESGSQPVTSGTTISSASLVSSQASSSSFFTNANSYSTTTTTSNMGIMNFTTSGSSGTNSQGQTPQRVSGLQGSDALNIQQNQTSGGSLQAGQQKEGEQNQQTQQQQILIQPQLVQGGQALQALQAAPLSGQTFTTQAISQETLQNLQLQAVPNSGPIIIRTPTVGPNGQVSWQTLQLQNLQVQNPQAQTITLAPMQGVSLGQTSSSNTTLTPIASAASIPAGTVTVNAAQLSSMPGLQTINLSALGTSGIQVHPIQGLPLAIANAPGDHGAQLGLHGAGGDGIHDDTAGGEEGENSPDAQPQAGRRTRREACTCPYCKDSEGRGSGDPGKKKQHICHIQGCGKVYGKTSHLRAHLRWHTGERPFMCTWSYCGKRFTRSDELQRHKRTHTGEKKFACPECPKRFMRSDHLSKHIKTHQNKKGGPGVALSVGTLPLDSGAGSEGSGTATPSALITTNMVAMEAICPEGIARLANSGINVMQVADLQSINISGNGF

TTCCAGCCCCTCCTCCCC (ssDNA, PS all linkages) [ICN 16476]: no binding [1].

TTGGAGGGGGTGGTGGGG (ssDNA, PS all linkages) [ICN 16064]: binds [2].

B1: 28b oligo (-51 to -22) (dsDNA)
DNA 1: GGGTTCCTCGGGGAGGAGGGGCTGGAACCC
DNA 2: GGGTTCCAGCCCCTCCTCCCCGAGGAACCC
B1: binds [3].

GGGGAGGAGGGGCTGGAA (ssDNA, PS all linkages) [ICN 16481]: binds [2].
